From paper PMC10599462, “Molecular basis of sulfolactate synthesis by sulfolactaldehyde dehydrogenase from Rhizobium leguminosarum” (Chemical Science, 2023) come the findings set out here.

As a reminder, the IC50 is the midpoint of a concentration-inhibition curve. As usually defined, the stoichiometry N is the number of molecules, sites or subunits per partner or assembly. One may read the Km as the concentration of substrate that gives half-maximal velocity. For orientation: kcat means the maximal rate divided by the concentration of active sites. Usually kcat/Km stands for the turnover number divided by the Michaelis constant.

Like-named read-outs stand apart in the source and are kept apart here.

Series [1] addresses T1, RlGabD (SLA dehydrogenase) (Rhizobium leguminosarum, UniProt A0AAJ6N661).
T1 sequence (A0AAJ6N661 1-489): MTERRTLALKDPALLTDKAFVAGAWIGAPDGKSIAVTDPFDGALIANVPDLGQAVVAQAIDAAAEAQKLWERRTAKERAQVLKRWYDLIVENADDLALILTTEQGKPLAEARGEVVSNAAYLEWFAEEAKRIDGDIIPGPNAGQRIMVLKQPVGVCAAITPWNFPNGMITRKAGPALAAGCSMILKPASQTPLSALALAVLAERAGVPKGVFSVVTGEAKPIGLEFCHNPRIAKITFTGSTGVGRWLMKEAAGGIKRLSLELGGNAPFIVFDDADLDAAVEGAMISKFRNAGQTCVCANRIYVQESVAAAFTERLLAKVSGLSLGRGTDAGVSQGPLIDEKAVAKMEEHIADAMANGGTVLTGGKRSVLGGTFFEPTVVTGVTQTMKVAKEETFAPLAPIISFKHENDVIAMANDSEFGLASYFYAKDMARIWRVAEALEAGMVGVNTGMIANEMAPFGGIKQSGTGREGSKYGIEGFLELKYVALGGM
Nature of the series: cryo-EM structure of binary complex at […] Å. The series is classed as binding. Further details: gene EV132_10158; recombinant RlGabD tetramer.

Series [2] addresses T1, RlGabD (SLA dehydrogenase). Nature of the series: biochemical. Details: gene EV132_10158; recombinant RlGabD; nanoDSF thermal shift (F350/F330 intrinsic fluorescence) of recombinant RlGabD with ligand. The note with it: nanoDSF, average of 2 replicates; read-out: ∆Tm (Avg).
The target of series [3] is T1, RlGabD (SLA dehydrogenase). Nature of the series: biochemical. Further details: gene EV132_10158; recombinant RlGabD; nanoDSF thermal shift (F350/F330 intrinsic fluorescence) of recombinant RlGabD with ligand. The note with it: nanoDSF, average of 2 replicates; read-out: ∆Tm (Avg). This is another data set of the same source.
Series [4] addresses T1, RlGabD (SLA dehydrogenase). Nature of the series: enzyme inhibition assay with constant SLA and NAD+. Details: gene EV132_10158; recombinant RlGabD. The series is classed as biochemical.
Series [5] concerns the target SLA dehydrogenase RlGabD from Rhizobium leguminosarum SRDI565 (Rhizobium leguminosarum bv. trifolii SRDI565). Nature of the series: SEC-MALS; SEC-MALLS of RlGabD in solution; homotetramer. In general terms: Size exclusion chromatography separates by hydrodynamic size, large species first.
Substrate in series [6]: NC(=O)c1ccc[n+]([C@@H]2O[C@H](COP(=O)([O-])OP(=O)(O)OC[C@H]3O[C@@H](n4cnc5c(N)ncnc54)[C@H](OP(=O)(O)O)[C@@H]3O)[C@@H](O)[C@H]2O)c1
As to the kind of experiment: purified protein. The conditions noted are these: […]′-phosphate binding residues Ser179 and Lys182 (E. coli SSADH numbering) conserved; varied: cofactor.

Substrate in series [7]: O=CC(O)COP(=O)(O)O
Nature of the series: purified protein. The conditions noted are these: NADP+.

Substrate in series [8]: NC(=O)c1ccc[n+]([C@@H]2O[C@H](COP(=O)([O-])OP(=O)(O)OC[C@H]3O[C@@H](n4cnc5c(N)ncnc54)[C@H](O)[C@@H]3O)[C@@H](O)[C@H]2O)c1
As to the kind of experiment: purified protein. The conditions noted are these: binds first to enzyme (rapid equilibrium ordered mechanism); varied: cofactor. It counts as biochemical, Rhizobium leguminosarum.

Substrate in series [9]: O=CC(O)CS(=O)(=O)O
Nature of the series: purified protein. It counts as biochemical, Rhizobium leguminosarum. The note with it: NAD+ proposed: Cys295 nucleophile, Glu261 general base, Asn163 oxyanion hole, Arg171/Arg289 sulfonate binding.

Regarding `NC(=O)C1=CN([C@@H]2O[C@H](COP(=O)(O)OP(=O)(O)OC[C@H]3O[C@@H](n4cnc5c(N)ncnc54)[C@H](O)[C@@H]3O)[C@@H](O)[C@H]2O)C=CC1` [NADH], in series [1], the “cryo-EM structure of binary complex at 2.52 Å” value was “The RlGabD·NADH complex shows the binding mode and positioning of the cofactor”. Besides, the ΔTm at 10000 µM in [2] worked out at 1.5 °C.
Consider `NC(=O)c1ccc[n+]([C@@H]2O[C@H](COP(=O)([O-])OP(=O)(O)OC[C@H]3O[C@@H](n4cnc5c(N)ncnc54)[C@H](OP(=O)(O)O)[C@@H]3O)[C@@H](O)[C@H]2O)c1` [NADP^+], for which the ΔTm at 10000 µM in series [2] amounted to 3.5 °C.
For the molecule `NC(=O)C1=CN([C@@H]2O[C@H](COP(=O)(O)OP(=O)(O)OC[C@H]3O[C@@H](n4cnc5c(N)ncnc54)[C@H](OP(=O)(O)O)[C@@H]3O)[C@@H](O)[C@H]2O)C=CC1` [NADPH], the ΔTm at 10000 µM in series [3] was 2.5 °C.
Consider `NC(=O)C1=CN([C@@H]2O[C@H](COP(=O)(O)OP(=O)(O)OC[C@H]3O[C@@H](n4cnc5c(N)ncnc54)[C@H](O)[C@@H]3O)[C@@H](O)[C@H]2O)CCC1` [tetrahydro-NADH], for which the IC50 in series [4] is 28 µM.
For `NC(=O)c1ccc[n+]([C@@H]2O[C@H](COP(=O)([O-])OP(=O)(O)OC[C@H]3O[C@@H](n4cnc5c(N)ncnc54)[C@H](O)[C@@H]3O)[C@@H](O)[C@H]2O)c1` [NAD^+], the ΔTm at 10000 µM in series [2] amounted to 4.3 °C.
“SLA dehydrogenase RlGabD from Rhizobium leguminosarum SRDI565 (enzyme)” returned a stoichiometry N in [5] of 4.

B1: RlGabD (SLA dehydrogenase) (Rhizobium leguminosarum bv. trifolii SRDI565) (protein)
chain: T1 sequence (A0AAJ6N661 1-489)
notes: recombinant RlGabD
As for B1, the Km in the series “purified protein [6]” came to 17 ± 4.1 µM; in “purified protein [7]” it was 170 ± 28 µM; in the series “purified protein [8]”, 81 ± 19 µM; in “purified protein [9]” it was 130 ± 40 µM. Besides, the kcat in the series “purified protein [6]” is 4.1 s⁻¹; in the series “purified protein [7]”, 3 s⁻¹; in “purified protein [8]”, 17.7 ± 3.2 s⁻¹; in “purified protein [9]” it was 17.8 ± 7 s⁻¹. Further, the kcat/Km in the series “purified protein [6]” worked out at 240000 M⁻¹ s⁻¹; in “purified protein [7]” it was 10500 M⁻¹ s⁻¹; in the series “purified protein [8]” it was 210000 ± 63000 M⁻¹ s⁻¹; in the series “purified protein [9]”, 137000 ± 72000 M⁻¹ s⁻¹.
